Reference: article PMC2733743

What was measured:
[1] = target: WT cortactin stably expressed in MTLn3 cells (endogenous cortactin knocked down) (rat); test: FRET or BRET
[2] = target: endogenous cortactin of MTLn3 cells (rat (endogenous in MTLn3)) (UniProt Q66HL2); test: FRET or BRET

Chain of WT cortactin stably expressed in MTLn3 cells (endogenous cortactin knocked down) (rat) (Q66HL2 whole entry): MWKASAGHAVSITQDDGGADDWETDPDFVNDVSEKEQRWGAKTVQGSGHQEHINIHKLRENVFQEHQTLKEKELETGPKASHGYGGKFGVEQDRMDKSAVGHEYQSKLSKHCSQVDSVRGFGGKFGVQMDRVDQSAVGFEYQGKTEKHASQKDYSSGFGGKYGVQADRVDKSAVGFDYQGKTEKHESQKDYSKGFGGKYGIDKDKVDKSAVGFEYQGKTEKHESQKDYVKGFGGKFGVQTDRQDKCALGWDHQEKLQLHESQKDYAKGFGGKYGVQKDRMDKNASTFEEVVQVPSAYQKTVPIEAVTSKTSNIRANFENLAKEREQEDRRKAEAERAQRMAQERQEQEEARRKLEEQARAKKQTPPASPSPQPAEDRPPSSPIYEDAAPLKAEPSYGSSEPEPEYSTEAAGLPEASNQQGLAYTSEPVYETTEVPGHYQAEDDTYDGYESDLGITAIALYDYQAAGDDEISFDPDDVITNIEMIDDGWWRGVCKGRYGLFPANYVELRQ

For “endogenous cofilin of MTLn3 cells (from UniProt P45592 1-166) (natural protein)”, the FRET efficiency [1] was 4.2% and the FRET efficiency [2] was 11.8%.
